Tests used:
[1] = molecular target: OhyA lacking helices α19 and α20 (OhyA(ΔHTH)), His-tagged (Staphylococcus aureus); assay: mass photometry; OneMP mass photometer; final concentration 100 nM protein; dilute, equilibrium conditions
[2] = molecular target: OhyA lacking helices α19 and α20 (OhyA(ΔHTH)), His-tagged (Staphylococcus aureus); assay: SEC-MALS; Superose 6 Increase 10/300 GL; 20 mM Tris, 200 mM NaCl, pH 7.6; 25 °C; protein at 2 mg/ml, 100 μl injected
[3] = molecular target: oleate hydratase (OhyA), recombinant full-length, His-tagged (Staphylococcus aureus); assay: cryo-EM single-particle images (no structure solved); grids of OhyA prepared in the absence of detergent
[4] = molecular target: oleate hydratase (OhyA), recombinant full-length, His-tagged (Staphylococcus aureus); assay: mass photometry; OneMP mass photometer; final concentration 100 nM protein; dilute, equilibrium conditions
[5] = molecular target: oleate hydratase (OhyA), recombinant full-length, His-tagged (Staphylococcus aureus); assay: SEC-MALS; Superose 6 Increase 10/300 GL; 20 mM Tris, 200 mM NaCl, pH 7.6; 25 °C; protein at 2 mg/ml, 100 μl injected

Row | Substance | percent dimer [1] [%] | percent monomer [1] [%] | percent dimer [2] [%] | stoichiometry N [2] | stoichiometry N [3] | percent dimer [4] [%] | stoichiometry N [4] | percent dimer [5] [%] | stoichiometry N [5]
1 | OhyA lacking helices α19 and α20 (OhyA(ΔHTH)), His-tagged (domain or fragment) | 20 | 75 | 89.8 | 2 | – | – | – | – | –
2 | oleate hydratase (OhyA), recombinant full-length, His-tagged (enzyme) | – | – | – | – | 4 | 86 | 2 | 84.6 | 2
